Data published in paper PMC7734621.

Biological target: Minerva virus protease (MVpro), NS6 3C-like protease of a GII.4 norovirus (Minerva virus (norovirus GII.4, 2006b variant))
Experiment: SEC

## Minerva virus protease (MVpro), NS6 3C-like protease of a GII.4 norovirus (enzyme)
  stoichiometry N: 2
